Assay results taken from patent publication CN106957364A (UNIV SHANGHAI JIAOTONG, dated 2017).

Target: T1, hFcRn&b2M蛋白 (human, UniProt P55899 24-297; P61769 21-119, limits assumed)
T1 construct: also called hFcRn&β2M; hFcRn蛋白
Test: affinity measurement at pH 6.0, hFcRn&b2M as ligand, scFv as sample (method not named)

T1 sequence (P55899 24-297 limits assumed, chain 1 of 2): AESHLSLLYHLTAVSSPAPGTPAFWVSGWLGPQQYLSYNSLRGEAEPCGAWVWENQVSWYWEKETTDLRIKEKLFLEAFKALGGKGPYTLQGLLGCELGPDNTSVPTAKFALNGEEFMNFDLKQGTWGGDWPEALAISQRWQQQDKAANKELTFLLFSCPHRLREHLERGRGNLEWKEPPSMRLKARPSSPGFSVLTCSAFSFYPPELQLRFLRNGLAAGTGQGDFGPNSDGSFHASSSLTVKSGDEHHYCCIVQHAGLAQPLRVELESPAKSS
T1 sequence (P61769 21-119 limits assumed, chain 2 of 2): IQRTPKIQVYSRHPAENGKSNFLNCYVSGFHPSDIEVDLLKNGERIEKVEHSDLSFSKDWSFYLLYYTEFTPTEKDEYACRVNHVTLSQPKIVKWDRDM

B1: 单链抗体FnAb12 (scFv)
scFv: DIQLTQSPSSLSASVGDRVTLTCQATQDIDNNLNWYQQKPGKAPKLLIYDASNLETGVPSRFSGSGSGTDFTFTISDLQPEDVATYYCQQYYNLPLTFGGGTKVDIKRSRGGGGSGGGGSGGGGSLEMAEVQLVQSGAEVKKPGASVKVSCKASGYTFTSYDINWVRQATGQGLEWMGWMNPNSGNTGYAQKFQGRVTMTRNTSISTAYMELSSLRSEDTAVYYCARGVDLGDGWGQGTLVTVSS
notes: Single-chain antibody from a phage library; also called FnAb12抗体; 单克隆抗体FnAb12
- Kd: 15 nM
